# Experiment: soluble on expression in E. coli; label from the status in PepcDB or PDB records
row,Sequence,soluble on expression in E. coli
1,MSLTGMLKRKVIVVSGVGPGLGTTLAHRCARDGADLVLAARSAERLDDVAKQIIDTGRRAVAVRTDITDDDDVSNLVQATLAAYGKADVLINNAFRVPSMKPLAGTTFEHIRDAIELSALGTLRLIQAFTPALAQSHGAIVNVNSMVIRHSQPKYGTYKMAKSVLLAMSHSLATELGEQGIRVNSVAPGYIWGDTLKSYFDHQAGKYGTTVDQIYQATAANSDLKRLPTEDEVASAILFLASDLASGITGQTLDVNCGEYHTEGHHHHHH,soluble
2,MSLTGRAVIGVIGNAHLVDNRFAVQHVGERNLRAVAEVAGALPLMFGGSSEFAQIEDLLEVVDGILLTGGRANVHPTYFKTAPNPRHEPYDQPRDELALALVRTCVERGVPLFGICRGFQEMNVAYGGSLHPEIRELPGRMNHRMPRLENGEIHPDPTVVFADRHDVQLTSDGVFARLLGRDLIRVNSLHGQGILEPGPRIVIEGVAEDGTIEAIRIADAPGFALGVQWHAEYDPQVNPINRALFVAFGEAVSAYRTARKRPAALRRSEGHHHHHH,soluble
3,MSLTGTDFHVGIVGLGSMGMGAARSCLRAGLSTWGADLNPQACANLLAEGACGAAASAREFAGVVDALVILVVNAAQVRQVLFGEDGVAHLMKPGSAVMVSSTISSADAQEIAAALTALNLNMLDAPVSGGAVKAAQGEMTVMASGSEAAFTRLKPVLDAVASNVYRISDTPGAGSTVKIIHQLLAGVHIAAAAEAMALAARAGIPLDVMYDVVTHAAGNSWMFENRMQHVVDGDYTPRSAVDIFVKDLGLVADTAKALRFPLPLASTALNMFTSASNAGYGKEDDSAVIKIFSGITLPGVTPEEGHHHHHH,soluble
4,MSLTIGIWILGDQLWSGQTALKSHQGDRSQVPVLLIESAEFARQRPYHRQKLVLVWSAMRHFAEDLRAEGWSVTYEIAADFLTPLHHWLKTQGVSHLQVMAPGDRPFEAWLKSLTLPCELTLLPNNHFLWSREDFSAWAGDRKRLLLEDFYRAGRKRWQILMVDDQPVGGRWNFDQDNRKPAKKNLSPPKPLSFPPDDITQQVIERIEQLNLPGYGQLSGFQWGEGHHHHHH,soluble
5,MSLTIIKQVELHEFDFKAKNLGNLTGAESVGAFGYLKGSFSKIKKFAVVIITDDGVRGEYVTHWCASDATYAQSSILAPKLLGRNAEEREGIYDDFKRELRQFDHMGHGPIDIALWDWAGKKLDCSVNFLLGGFKKKLPAYASTYHGDRNGGLDSKEAFSDFAEYCYDLGYKAFKIHGWNDGNAKEEAENVLHVAKKVGHKMTLMLDPACELRTFADALYVGKACDEADYFWLEDPYRDSGVSAFAHKKLRNMIKTPILQTEHIRGLEPKADFLIAGGTDFLRMDPEYDMGITGGMKIAHLAESFGVDVEIHACGPAHRHMMSAIRNTNFYEVALLGPDCPNAIPPVYLCGYSDMIDCIDKNGFVEVPNGVGLGVKYDWEFISKNTTNKKIFSLEGHHHHHH,soluble
6,MSLTIITMIRFYGFSVMLENEQLKIEYGLFNKKKVTVPTKRLQAVVERQSYIRRLFGYTAIHFIITSDFENKKIEDDDNDSGSVPILPFIKRDKAYQIIQNLVPDLSYQQVNEGMPLSGFHEGHHHHHH,not soluble
7,MSLTIKNSLGQSHDYIKMFVKEGDTVVDATCGNGNDTAFLASLVGENGRVFGFDIQDKAIANTTKKLTDLNLIDRVTLIKDGHQNMDKYIDCPVKAVMFNLGYLPSGDHSISTRPETTIQALSKAMELLVTGGIITVVIYYGGDTGFEEKEKVLEFLKGVDQKKFIVQRTDFINQANCPPILVCIEKISEGHHHHHH,soluble
8,MSLTIMPDIARMKRELAEIIAIRSENPPGGEADVAVYVERLLKDEGFSVSLTEYKPGRFNVEARIENGPGPVFAFNTHMDTVPAGDGWTTDAFILREDDGKLFGRGACDCKGPLIAMIEAMRMLAADRTAWSGTLLGVFVGDEEIASEGAKYYAAARPKIDFAVVGEPTSNTTYSAHKGSLRPVVRVHGVTAHSGTPHLGDNAIYRAGQLLTLVEAFHNNVVRKRTHPLVGEASLTVTRISGGHADNVLPGSCDLLLDRRMVPGESEDAVKQEFATLLKDAYDRFGVKAEIVDYKATTGSATETAADQSIVAASLEACRASGTSDPGPFGFQGGCDLVHFRSLGAQGTVIGPGSLSVAHKADEFVPLDEFVTCSVIYRDVARKMLRPNEGHHHHHH,soluble
9,MSLTIQMKNTGKRIDLIANRKPQSQRVLYELRDRLKRNQFILNDTNPDIVISIGGDGMLLSAFHKYENQLDKVRFIGLHTGHLGFYTDYRDFELDKLVTNLQLDTGARVSYPVLNVKVFLENGEVKIFRALNEASIRRSDRTMVADIVINGVPFERFRGDGLTVSTPTGSTAYNKSLGGAVLHPTIEALQLTEIASLNNRVYRTLGSSIIVPKKDKIELIPTRNDYHTISVDNSVYSFRNIERIEYQIDHHKIHFVATPSHTSFWNRVKDAFIGEVDEEGHHHHHH,soluble
10,MSLTKPIIGITANVRPNPAHEDIKWSYAPSGFVEGVQKAGGLAILLPVSDPLEAKTYISMIDKLILIGGQNIDPKFYNEENHACEDDFFLERDLFEMALIEEATKQKKPIFSICRGTQLMNVALGGSLHQDIKRHWQDKPSDYLYHEIIIDKNSKLAEIYGLETSINSFHHQSIKHLASDLRVIARDPEDNTVEAIESNTPDLRYLGVQWHPELLLNKREEDLKLFEYVVDELEGHHHHHH,soluble
11,MSLTLPELFTSVFSHFKGQPDKAPIARKINGAYSPISYDSLAEDCRHFAAYLKERGIEPGDRVAILSENRPGWYLADIAILSLGATDVPLYPSLPPNQIEYILNNCSAKGIIVSNMLQLGKILSIWPKLPELNMVIVMNKLDEPVEDVIDLSQAKTEGKKVLEAKPWLLDGIKSNPDDVATLIYTSGTTGLPKGVMLTHRNICENVKSCSTVIRIDQTDSSLSFLPLSHAYERTGGYYLMFACGARINLAESVETISLNISEAKPTIIFTVPRLFDRMKASILKSVTSEGGVKEKIFFWAVSTGEKYHKQLATGKVSPLLAVQHNLADKLVYSKIRKKFGGKLRYFVSGGAALPQKTGEFFQSIGITILEGFGLTETSPVTNVNRPEKVKFGTVGLPVKNVEVKIAPDGEIMLKGPNIMKGYWKDEAASAEVLRDGWLYTGDIGEVDSEGYLKITDRKKHIIVTSGGKNIAPLQIENLILDSPYVDQAMIVGEKRPFLIALIVPDFLKLRDFAAEHQIKASSTKELINTKEVIEVYEKLLKSISRQLATHEKVRKFLLLEEPFSIENGMMTPTLKLKRKEITTKFSAEIDNLYNTLNMVYNTEGHHHHHH,not soluble
12,MSLTLSDKDFEVLRDFIYNHCGIYFHTSKKYFLESRITRRIEATSSPNLMTYMGLLKSGPGKSDELLKLLTEITTNETCFFRNPPQLKALENVFLPEIVAAKGKIGFRKLRIWSAGSSSGEEAYTMAMLLLEKRATILKDWIIEIVGTDISETVLAQAREGVYNAYSVRNTPDYYKKKYFRQEPGERYVLSPDVKKLVSFNHLNLYEDAKMVFMKSFDFIFCANVLIYFDLASKTKVVQHYYNNLQPYGYFFVGQSESLHGVNDKFKTVHFPGGFAYKKEGHHHHHH,soluble
13,MSLTLTLTGTGGAQGVPAWGCECAACARARRSPQYRRQPCSGVVKFNDAITLIDAGLHDLADRWSPGSFQQFLLTHYHMDHVQGLFPLRWGVGDPIPVYGPPDEQGCDDLFKHPGLLDFSHTVEPFVVFDLQGLQVTPLPLNHSKLTFGYLLETAHSRVAWLSDTAGLPEKTLKFLRNNQPQVMVMDCSHPPRADAPRNHCDLNTVLALNQVIRSPRVILTHISHQFDAWLMENALPSGFEVGFDGMEIGVALEHHHHHH,soluble
14,MSLTPKKISSISLEVTGSIVSIGLAVYKDIFEYINLVTHKFIYFQDLERKNIELQLEIARLQHLQSEVESVKAENIALKDLLMIAEEEEFEYLTTKLLSVSFNPFSRTALISAGKKQGIEPDQIVVNSGKLVGKIIEVSNNYSKVMLISDVNSRIPIKANSSREQGILAGNNNNSKILYLPNNHLVQKDEEIVTSGHGNIYPAGILVGYVSRVTENDVIVNLAADLSKMEFVQILLPKQEGHHHHHH,soluble
15,MSLTQDYELVVKGVRNFENKVAVTVALRDKKRFDGEIFDLDISLDRVEGAALEFYEAAARMRIRQVFLDVAAGLCVGDEQSPEKRPIILEAQNVWITYKGKLPGRITGSLKTPPTALRSEGHHHHHH,not soluble
